# Laboratory results published in US20160271292A1 (GEORGIA TECH RESEARCH, published 2016).
# B1: H6 fibrin-specific single domain variable fragment antibody (sdFv) (VHH)
# VHH: QVQLLESGGGLVQPGGSLRLSCAASGDRFTHNDMGWVRQAPGKGLEWVSTIPTTDGSTYYADSVKGRFTISRDNSKSTLYLQMNSLRAEDTAVYYCATGYMWKAPAYVKYWGQGTLVTVSS
# notes: Human-derived single domain antibody with only the VH of human IgG, from a phagemid library; Produced as soluble sdFv in E. coli HB2151 and purified on protein A; also called clone H6; nanobody
# Columns and labels:
# [1] = molecular target: fibrin (polymerized from purified human fibrinogen with thrombin) (human) (UniProt P02671); assay: SPR, sdFv flowed over thin fibrin layer, Langmuir 1:1 fit
# [2] = molecular target: T1, BSA (UniProt P02769 25-607); assay: SPR, scFv/sdFv flowed over a BSA surface
# T1 construct: Control surface in SPR; also called BSA surface
# T1 sequence (P02769 25-607 limits assumed): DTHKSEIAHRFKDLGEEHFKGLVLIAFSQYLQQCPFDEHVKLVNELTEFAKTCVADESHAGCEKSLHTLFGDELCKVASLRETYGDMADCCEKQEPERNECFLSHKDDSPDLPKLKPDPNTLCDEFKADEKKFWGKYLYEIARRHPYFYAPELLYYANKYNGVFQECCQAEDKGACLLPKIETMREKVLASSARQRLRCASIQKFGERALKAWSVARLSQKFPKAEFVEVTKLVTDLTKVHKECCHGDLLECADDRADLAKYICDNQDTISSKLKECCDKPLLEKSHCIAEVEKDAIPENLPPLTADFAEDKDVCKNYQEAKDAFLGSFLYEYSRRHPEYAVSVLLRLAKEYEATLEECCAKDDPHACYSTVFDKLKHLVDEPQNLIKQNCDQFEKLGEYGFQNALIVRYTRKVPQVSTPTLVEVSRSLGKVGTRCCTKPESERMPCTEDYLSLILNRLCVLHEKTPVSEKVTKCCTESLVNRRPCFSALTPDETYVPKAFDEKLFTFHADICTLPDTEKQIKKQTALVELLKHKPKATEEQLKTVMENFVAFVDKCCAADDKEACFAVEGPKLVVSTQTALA
binder,measurement,setting,value
B1,Kd,[1],199 nM
same,binding result,[2],no binding (tested: not printed)
